Target: PNR hinge-LBD (131–410) (human) (UniProt Q9Y5X4)
Assay: two-hybrid; as a1, yeast cultured in the presence of the cognate ligand of the AAD partner (T3 for TRβ)

UniProt Q9Y5X4, sequence (Q9Y5X4 131-410): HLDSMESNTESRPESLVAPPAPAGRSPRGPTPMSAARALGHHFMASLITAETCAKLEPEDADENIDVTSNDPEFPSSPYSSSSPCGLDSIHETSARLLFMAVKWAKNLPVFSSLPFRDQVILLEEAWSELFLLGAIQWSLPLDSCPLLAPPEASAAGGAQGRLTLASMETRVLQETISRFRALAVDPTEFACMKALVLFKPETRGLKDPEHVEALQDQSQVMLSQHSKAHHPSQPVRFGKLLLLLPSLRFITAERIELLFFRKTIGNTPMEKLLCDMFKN

Substance: near full-length VP16-TRβ1 construct (from UniProt P10828 1-461) (domain or fragment)
- fold induction of reporter activity by T3: 20 fold
